Data reported in patent publication US20090275105A1, “PROCESS FOR THE PRODUCTION OF BROMELAIN BY MEANS OF SUBSTANCES THAT INDUCE PROTEINS IN PINEAPPLE PLANTS” (priority 2006, published 2009).

Legend:
[1] = Comparison of the specific activity of bromelain obtained from different methods; type: biochemical, Ananas comosus; details: 30 mg/ml protein sample; inducers: 15 days from induction
Protocol: The plantlets grown in vitro in different culture mediums indicated in this invention were taken and rinsed in running water to remove the Induction SS medium. 330 g of plants were weighed, placed in an extractor to be ground and 200 ml of juice was obtained (first extraction) that was stored at a temperature of 4° C. 670 ml of extraction buffer (monobasic potassium phosphate and dibasic potassium phosphate) is added to the pulp obtained from the extraction at a pH of 6.1 and a concentration of 0.05M; this is allowed to repose for 20 minutes in order to afterwards collect the enzyme and pass it through an extractor and thus obtain the second juice. The following step is to mix and homogenize the juice from the first extraction with the second extraction for 1 minute at 2000 rpm and to then centrifuge at 10000 rpm for 20 min. at 4° C., to afterwards recover the supernatant with a volume of approximately 800 ml which is frozen at −80° C. and lyophilized (10% of solids) for its preservation. The extraction procedure is applied for all the treatments of which the amount of protein present is determined (Bradford) expressing the protein per ml of extract in mg. A standard curve is used for the protein tests. The standard used was bovine serum albumin at 0.20-1.0 mg/ml. Based on the results, the following specific activities were obtained compared with imported commercial bromelain and bromelain induced from in vitro plants.

[2] = test system: pineapple plants (Ananas comosus); test: Specific enzyme activity of raw extract from pineapple plantlets induced in vitro (Dapeau method); type: in vivo; details: sacarose 30-90 g/L as inducer
Protocol: In order to perform the evaluation of the inducers, a factor design was carried out of 3×3×3 with three inducers at three different concentrations and three monitoring times (Chart 4), for each treatment The evaluations are carried out using the inducers separately or in combination giving a total of […]. […] The induction was begun with the selection of the sprouts previously established in vitro with a size of 2 cm and an average of 3 leaves and weighing 120 mg. […] Once the inducers are added to the modified SS, it is sterilized at 121° C., at a pressure of 1.2 kg/cm^2 for 20 minutes. In the treatments that contain salicylic acid, the modified SS medium is first sterilized and later the acid is added, which was sterilized through filtration, under aseptic conditions in a laminar flow hood. Here it is advisable to add the acid to the medium before it is cooled to achieve the homogenization of the inducer with the medium before it is solidified. The sprouts are planted under aseptic conditions in 460 ml flasks that contain 30 ml of the Induction SS, said flasks are closed and sealed with clear tape in order to avoid any filtering of air and with the air, contamination of same. The treatments are moved to a growth room under controlled conditions at 27±2° C. and a photoperiod of 16 hr/light and 8 hr/darkness for a period of 7, 15, 30 and 45 days. […]

[3] = fractioning with ammonium sulfate; cited from earlier work
[4] = bromelain obtained from stems; cited from earlier work
[5] = cited from earlier work

## [Cl-].[Na+] [NaCl, sodium chloride]
[1]
  Specific activity (U/mg^−1 protein): 4.98 U/mg^−1 protein

## OC[C@H]1O[C@@](CO)(O[C@H]2O[C@H](CO)[C@@H](O)[C@H](O)[C@H]2O)[C@@H](O)[C@@H]1O [Sacarose]
[2]
  specific activity in induction tests, comparison of inducers: greater specific activity
[1]
  Specific activity (U/mg^−1 protein): 635 U/mg^−1 protein

## O=C(O)c1ccccc1O [Salicylic acid]
[1]
  Specific activity (U/mg^−1 protein): 3.17 U/mg^−1 protein

## Bromelain
[3]
  proteolytic activity: 1.64 U/mg^−1
[4]
  Isoelectric Point p1: 9.55
[5]; 25° C. for 20 min
  Stability in solutions of 25% methanol (v/v): stable
[5]; 55° C. for 20 min at pH 6
  loss of activity when the enzymatic solution is heated: 50%
[5]; Inagami and Murachi, 1963
  Optimal pH: approximately 7
[5]; Murachi et al., 1964
  loss in activity caused by lyophilization: 27%
